Experimental data as given in patent publication US20110165265A1, “TRAIL VARIANTS FOR TREATING CANCER” (FUNDACIÓ GENÒMICA (CRG), priority 2007, published 2011).

Columns and labels:
[1] = tested on: Colo205 cells; test: Colo205 apoptosis after pre-incubation of ligand with soluble receptor-Ig; type: cell-based, human; details: 10 ng/ml ligand; for effect of pre-incubation with sDcR1 on pro-apoptotic activity: sDcR1 up to 2 μg/ml
Protocol: (A) Effect of soluble recombinant DcR1-Ig (sDcR1) on apoptosis induction by TRAIL and DR5-selective variants. […] All graphs are representatives of two independent repeats. (D) Neutralizing antibodies against DcR1 and DcR2 can augment wtTRAIL- but not DR5-variant induced cell death. […] Induction of apoptosis was measured 3 h post-treatment using Annexin V assay. […] The graphs show the average±SEM of three independent experiments.
Induction of cell death was assessed by Annexin V assay 3 h after treatment (FIG. 14), as described above. […] (FIG. 14C). This confirms that the observed differences in blocking efficacy are due to reduced ability of the decoy receptors to bind and inhibit D269H and D269HE195R.

[2] = tested on: EM-2 cells; test: Cytotoxicity in EM-2 cells; type: cell-based
From the text: Similar results were obtained by using EM-2 chronic myeloid leukemia cells expressing only the DR4 receptor and lacking the DR5 receptor and by using the ovarian cancer cell line A2780, which expresses DR5 but lacks DR4 on its surface and is relatively insensitive toward TRAIL-induced cell death.

[3] = tested on: LoVo cells; test: Cell survival / sensitivity of LoVo; type: cell-based
From the text: C) Effect of increasing concentration of 5-Flurouracil on Lovo cells.

[4] = acknowledged value; cited from earlier work
[5] = biological target: T1, DR5 (Homo sapiens, UniProt O14763); test: SPR binding to immobilized DR5-Ig
T1 construct: Effect of soluble recombinant DR5-Ig (sDR5) on apoptosis induction

[6] = biological target: T2, DR4 (Homo sapiens, UniProt O00220); test: SPR binding to immobilized DR4-Ig; details: pre-steady state SPR
T2 construct: the more commonly used dimeric TRAIL-receptor-IgG Fc chimeric constructs
From the text: In other experiments dissociation was continued for periods of up to 2,000 sec, with similar results. As a consequence it is essentially impossible to obtain a dissociation rate constant and thus to calculate the affinity from the association and dissociation rate constants. We therefore chose to use the pre-steady state approach to analyse the data^10. […] With these two changes this variant has become an TRAIL variant that binds to DR5 with high selectivity and affinity.

[7] = biological target: T3, DcR1 (Homo sapiens, UniProt O14798); test: SPR receptor binding assay, immobilized DcR1-Ig; details: 0.1-250 nM ligand
T3 construct: soluble, recombinant DcR1-Ig (sDcR1) and DcR2-Ig (sDcR2); purchased R&D Systems
T3 sequence (O14798 26-236 limits assumed): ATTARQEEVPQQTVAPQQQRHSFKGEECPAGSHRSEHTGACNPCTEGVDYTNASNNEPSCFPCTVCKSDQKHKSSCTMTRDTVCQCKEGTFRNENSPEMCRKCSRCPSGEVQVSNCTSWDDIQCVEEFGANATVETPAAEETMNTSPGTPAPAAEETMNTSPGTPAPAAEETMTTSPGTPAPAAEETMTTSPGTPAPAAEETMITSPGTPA
Protocol: (§1) The response data (in response units) as a function of TRAIL concentration were fitted using a four parameter equation to give an apparent pre-steady state affinity constant.
(§2) Binding experiments were performed at 37° C. using a surface plasmon resonance-based biosensor (Biacore 3000, Biacore AB, Uppsala, Sweden) as previously described^10. In short, DcR1-Ig and DcR2-Ig receptor chimeras (R&D Systems) were captured at a 35 μl/min flow rate using a protein A (Sigma) modified CM5 sensor chip (Biacore). Receptor chimeras were captured at a level of ˜500-800 response units (RU). […] Binding of ligands to the receptors was monitored in real-time. Between injections the protein A sensor surface was regenerated using a 30s pulse of 0.1 M glycine 0.5 M NaCl pH 3. Due to the very slow dissociation of the TRAIL-receptor complex, only pre-steady state binding data could be obtained. In order to obtain data that represent proper high-affinity complex formation, the response at each concentration was recorded 30 sec after the end of the injection. The response data (in response units) as a function of TRAIL concentration were fitted using a four parameter equation to give an apparent pre-steady state affinity constant.
(§3) Affinity of the ligands was assessed by measuring receptor binding in a concentration range of 0.1-250 nM.

[8] = biological target: T4, DcR2 (Homo sapiens, UniProt Q9UBN6); test: SPR receptor binding assay, immobilized DcR2-Ig; details: 0.1-250 nM ligand
T4 construct: soluble, recombinant DcR1-Ig (sDcR1) and DcR2-Ig (sDcR2); purchased R&D Systems
T4 sequence (Q9UBN6 56-211 limits assumed): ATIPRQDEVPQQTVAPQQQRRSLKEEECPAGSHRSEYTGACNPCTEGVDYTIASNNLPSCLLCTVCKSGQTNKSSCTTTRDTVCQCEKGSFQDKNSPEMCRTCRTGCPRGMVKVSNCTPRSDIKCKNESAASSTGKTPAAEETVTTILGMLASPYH
Protocol: as §1, §2, §3

[9] = tested on: Colo205 cells; test: Annexin V apoptosis assay in Colo205; type: cell-based, human; details: Colo205, 3 h
Protocol: Colo205 cells express all four TRAIL receptors, and are sensitive to TRAIL-induced apoptosis, which is mediated predominantly via DRS in these cells^10. […] Induction of cell death was measured by Annexin V assay, wherein externalization of phosphatidyl serine (PS) on the plasma membrane of apoptotic cells was detected using Annexin V-FITC (IQ Corporation, Groningen, The Netherlands). Briefly, cells were trypsinized and were then collected by centrifugation at 400 g, washed in ice-cold calcium buffer (10 mM HEPES/NaOH, pH 7.4, 140 mM NaCl, 2.5 mM CaCl2) and incubated with Annexin V-FITC for 15 min in the dark prior to acquisition on a FACSCalibur flow cytometer (Becton Dickinson).

[10] = tested on: A2780 cells; test: MTT cytotoxicity in A2780 (Example 6); type: cell-based; details: A2780 (FIG. 8E)
[11] = tested on: BJAB cells; test: Cytotoxicity in BJAB cells; type: cell-based
[12] = tested on: VACO-235 and VACO330; test: Sensitivity of colon adenoma cell lines; type: cell-based, human; details: 96 hours
Protocol: The colon adenoma cell lines VACO-235 and VACO330 were treated with TRAIL or D269H/E195R for 96 hours. […] Sensitivity could be further enhanced using TRAIL or D269H/E195R in combination with the cdk inhibitor roscovitine.

[13] = tested on: A2780 cells; test: Sensitivity of ovarian carcinoma cell line A2780 (Example 4); type: cell-based, human
From the text: The ovarian carcinoma cell line A2780 expresses very low levels of DR4, and high levels of the other three membrane-bound TRAIL receptors. Sensitivity of these cells to wild type TRAIL and the DR5-specific variant was compared initially as a single agent. The sensitivity pattern is illustrated in the Table 6, with + indicating minimally sensitive, ++ moderately sensitive and +++ very sensitive.

T2 sequence (O00220 24-239 limits assumed): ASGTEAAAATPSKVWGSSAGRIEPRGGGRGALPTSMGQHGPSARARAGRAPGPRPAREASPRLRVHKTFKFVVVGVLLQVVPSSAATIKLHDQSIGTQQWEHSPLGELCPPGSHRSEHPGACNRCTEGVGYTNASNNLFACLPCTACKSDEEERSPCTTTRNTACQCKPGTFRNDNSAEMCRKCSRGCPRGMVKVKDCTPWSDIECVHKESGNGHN

B1: wtTRAIL: wild-type soluble recombinant human TRAIL, amino acids 114-281 (SEQ ID NO: 3) (protein, listed as Homo sapiens)
chain: MVRRGRVAAHTGTRGRSNTSSNSKNKAGRKNSWSSRSGHSSNHRNGVHKGYYYSTYRKNTKNDKMVYYKYTSYDMKSARNSCWSKDAYGYSYGGKNDRVSVTNHDMDHASGAVG
modifications: TRAIL 114-281
For B1, the “effect of pre-incubation with sDcR2 on apoptosis induction” value [1] was “able to block apoptosis induction”, the “effect of pre-incubation with soluble DR5 on pro-apoptotic activity” value [1] was “completely block” and the “effect of pre-incubation with sDcR1 on pro-apoptotic activity” value [1] was “completely blocked”. For the same molecule, the cell death ([2]; EM-2, 50 ng/ml) was > 80%, the “cell viability, single agent” value [3] was “equal decrease in cell viability” and the “effect of 5-FU and Aspirin on induced apoptosis” value [3] was “enhanced apoptosis”. The half life [4] was “approximately 30 minutes”.

B2: D269HE195R: rhTRAIL (114-281) carrying mutations D269H and E195R; DR5-selective TRAIL variant (protein)
chain: MVRERGPQRVAAHITGTRGRSNTLSSPNSKNEKALGRKINSWESSRSGHSFLSNLHLRNGELVIHEKGFYYIYSQTYFRFQERIKENTKNDKQMVQYIYKYTSYPDPILLMKSARNSCWSKDAEYGLYSIYQGGIFELKENDRIFVSVTNEHLIDMHHEASFFGAFLVG
For B2, the “increase in association rate constant (kon) for binding to DR5 compared to wtTRAIL” value [5] was “less than 5 fold”, the “affinity for DR5-Ig compared to wtTRAIL” value ([5]; pre-steady state SPR) was “increased several fold” and the “affinity for DR4-Ig compared to wtTRAIL” value [6] was “almost abolished”. For the same molecule, the “binding towards DcR1, reduction compared to wtTRAIL” value [7] was “approximately 20 fold”, the “binding toward DcR2 compared to wtTRAIL” value [8] was “reduced” and the “increase in apoptosis / cytotoxic potential compared to wtTRAIL (based on IC50)” value [9] was 2.7-4.2 fold. For the same molecule, the “increase in apoptosis / cytotoxic potential compared to wtTRAIL (based on IC50)” value ([9]; listed as D269H/E195R) was 3.3-4.2 fold, the “effect of pre-incubation with sDcR2 on apoptosis induction” value [1] was “no complete protection could be achieved” and the “effect of pre-incubation with sDcR1 on pro-apoptotic activity” value [1] was “failed to reduce”. The “cytotoxic activity compared with wild-type TRAIL” value [10] was “significantly increased”, the cell death induction ([2]; EM-2 cells) was “hardly any apoptosis” and the cell death induction ([11]; BJABDR5 DEF cells) was “unable to induce significant cell death”. The cytotoxic potential ([11]; BJABDR5 DEF+DR5 cells) was “restored”, the cell death induction ([11]; BJABwt cells) was “able to induce cell death” and the “cell viability, single agent” value [3] was “equal decrease in cell viability”. For the same molecule, the “effect of 5-FU and Aspirin on induced apoptosis” value [3] was “enhanced apoptosis”, the “sensitivity, single agent comparison” value [3] was “higher sensitivity” and the “sensitivity of adenoma cell lines” value [12] was “more sensitive to D269H/E195R”. The “efficacy in combination with Cisplatin” value [13] was “higher efficacy than wtTRAIL” and the “sensitivity compared to wild type TRAIL, single agent” value [13] was “increased sensitivity”.
